Drawing on US20240158477A1, this text covers EC50 (read off the curve) and IC50, authentic SARS-CoV-2 neutralization on Vero-E6 cells (viral RNA by RT-PCR) for 1 substance.

The target of assay [1] is RBD-Fc (SARS-CoV-2 S protein amino acids 319-541 with human IgG1 Fc) (SARS-CoV-2; human) (UniProt P0DTC2).
Assay [2] concerns the target SARS-CoV-2 S protein (wildtype) (SARS-CoV-2) (UniProt P0DTC2). Kind of assay: cell-based or functional assay.

Consider Fc tagged VHH72 (Fc fusion), for which the concentration giving a half-maximal response (EC50 (read off the curve)) in assay [1] stood at 0.2 nM. The IC50, authentic SARS-CoV-2 neutralization on Vero-E6 cells (viral RNA by RT-PCR) in assay [2] was determined as 13.8 nM.

As usually defined, the EC50 (read off the curve) is the concentration that produces a half-maximal response.
